In patent US20090291088A1 (Biogen, published 2009):

What was measured:
[1] = molecular target: T1, hIGF-1R-Fc mutant SD203 (N254A) (human, UniProt P08069 31-933); assay: SPR, antibody over captured mutant
T1 construct: not shown: C-terminal human IgG1-Fc tag
Description: (§1) Surface plasmon resonance (SPR) experiments were performed on a Biacore 3000 instrument set to 25° C. […] The antibody sensorchip surfaces were prepared by injecting each antibody (diluted 100 μg/mL in 10 mM Acetate, pH 4.0) over EDC/NHS-activated sensorchip surfaces according to the standard protocol of the manufacturer. […] Both hIGF-1R-Fc and mIGF-1R-Fc proteins oligomerize due to the incorporation of two separate homodimeric regions (IGF-1R and IgG1-Fc). […] After, completion of the receptor-Fc loading step, flow rates were elevated to 5 μl/min. […] Dissociation was measured for 7 minutes after the antibody injections were complete. Finally, the flow rate was elevated to 30 μL/min and the chip surfaces were regenerated by 2×10 μL injections of 0.1 M glycine, pH 2.

[2] = molecular target: T2, hIGF-1R-Fc mutant SD207 (G265Y) (human, UniProt P08069 31-933); assay: SPR, antibody over captured mutant
T2 construct: not shown: C-terminal human IgG1-Fc tag
Description: as §1

human IGF-1R(1-903)-Fc [3] = molecular target: T3, human IGF-1R(1-903)-Fc (human, UniProt P08069 31-933); assay: ELISA on hIGF-1R-Fc, competitor biotinylated M14-G11
T3 construct: Made by Biogen Idec; Multimerises through IGF-1R and Fc; also called hIGF-1R-Fc; IGF-1R-Fc; not shown: C-terminal human IgG1-Fc tag

human IGF-1R(1-903)-Fc [4] = molecular target: T3, human IGF-1R(1-903)-Fc; assay: ELISA on hIGF-1R-Fc, competitor Zenon-labelled αIR3
[5] = molecular target: T4, human IGF-1R expressed on cells (human, UniProt P08069 31-1367); assay: flow cytometry, MCF-7 cells
T4 construct: On MCF-7 tumor cells or on 3T3/CHO transfectants; precursor is processed into alpha and beta subunits; Signal peptide 1-30 left out as stated; also called wild type IGF-1R; IGF-1R 3T3

[6] = molecular target: T5, hIGF-1R-Fc mutant SD012 (E303G) (human, UniProt P08069 31-933); assay: SPR, Fab over captured SD012
T5 construct: not shown: C-terminal human IgG1-Fc tag
Description: as §1

[7] = molecular target: T6, human IGF-1R(1-902)-His10 (human, UniProt P08069 31-932); assay: SPR, Fab over captured IGF-1R-10His
T6 construct: Cy5-labelled in tr-FRET; also called hIGF-1R-His10; IGF-1R-His
Description: All surface plasmon resonance (SPR) experiments were performed on a Biacore 3000 set to 25° C. using HBS-EP (Biacore, Cat. No. BR-1001-88) as the running buffer. A biotin-labeled anti-HisTag antibody (biotin-PENTA-His, Qiagen Cat. No. 34440) was immobilized to saturation on a Biacore SA chip (Cat. No. BR-1000-32) surface by injection at 500 nM in HBS-EP buffer. […] Subsequent to IGF-1R injections, flow rates were increased to 20 μL/min. A second, 130 μL injection of anti-IGF-1R antibody or Fab was performed to investigate interactions with the receptor. Each antibody and Fab was serially diluted from 64 nM to 0.5 nM to obtain concentration dependent kinetic binding curves. Each injection series was regenerated using 3×10 μL injections of 10 mM Acetate, pH 4.0, at 20 μL/min. Each curve was double referenced using (1) data obtained from a streptavidin surface devoid of IGF-1R and (2) data from a primary injection of IGF-1R followed by a secondary injection of HBS-EP buffer. The concentration series for each antibody and Fab was fit to the 1:1 binding model provided within the BiaEvaluation software of the manufacturer.
To obtain discrete affinities, Fab fragments of each antibody were generated using papain digestion as described above.

[8] = molecular target: T7, hIGF-1R-Fc mutant SD015 (H464E) (human, UniProt P08069 31-933); assay: SPR, Fab over captured SD015
T7 construct: not shown: C-terminal human IgG1-Fc tag

[9] = molecular target: T8, hIGF-1R-Fc mutant SD008 (S257F) (human, UniProt P08069 31-933); assay: SPR, Fab over captured SD008
T8 construct: not shown: C-terminal human IgG1-Fc tag
Description: as §1

[10] = molecular target: T9, hIGF-1R-Fc mutant SD202 (D250S) (human, UniProt P08069 31-933); assay: SPR, Fab over captured mutant
T9 construct: not shown: C-terminal human IgG1-Fc tag

[11] = molecular target: T10, hIGF-1R-Fc mutant SD201 (D248A) (human, UniProt P08069 31-933); assay: SPR, Fab over captured mutant
T10 construct: not shown: C-terminal human IgG1-Fc tag

Binder	binding result [1]	binding result [2]	percent competition (relative to self-competition) (human IGF-1R(1-903)-Fc [3]) [%]	percent competition (relative to self-competition) (human IGF-1R(1-903)-Fc [4]) [%]	EC50 [5] [nM]	fold loss in affinity against wild-type [6] [fold]	Kd [7] [nM]	koff [7] [s⁻¹]	kon [7] [M⁻¹ s⁻¹]	Kd [8] [nM]	fold loss in affinity against wild-type [9] [fold]	binding result [10]	binding result [11]
P1E2 (chimeric antibody) (antibody, human IgG4, V domains shown, also called chimeric antibody P1E2) VH: QVQLQQPGAELVKPGASVKLSCKASGYTFTSYWMHWVKQRPGQGLEWIGEINPTYGRSNYNEKFKSKATLTVDKSSSTAYMQLSSLTSEDSAVYYCARLVRLRYFDVWGAGTTVTVSS VL: DIVMTQAAFSNPVTLGTSASISCRSSKSLLHSNGITYLYWYLQKPGQSPQLLIYQMSNLASGVPDRFSSSGSGTDFTLRISRVEAEDVGVYYCAQNLELPYTFGGGTKLEIK	no binding (tested: 30 nM)	no binding (tested: 30 nM)	90 to 100	90 to 100	–	–	–	–	–	–	–	–	–
M14-G11 Fab (Fab, V domains shown, Human phage Fab, kappa) VH: EVQLLESGGGLVQPGGSLRLSCAASGFTFSNYPMYWVRQAPGKGLEWVSRISSSGGRTVYADSVKGRFTISRDNSKNTLYLQMNSLRAEDTAVYYCARDRWSRSAAEYGLGGYWGQGTLVTVSS VL: not shown	–	–	–	–	39.8	~3	4	0.0012	300000	4 to 6	~3	no binding (tested: 30 nM)	no binding (tested: 30 nM)
